Here are results for five molecules from patent US20120034160A1 (AbbVie / Abbott, published 2012).

One test has as its target T1, Recombinant Human IL-17 (human, UniProt Q16552 20-155, limits assumed).
T1 construct: bought reagent
T1 sequence (looked up): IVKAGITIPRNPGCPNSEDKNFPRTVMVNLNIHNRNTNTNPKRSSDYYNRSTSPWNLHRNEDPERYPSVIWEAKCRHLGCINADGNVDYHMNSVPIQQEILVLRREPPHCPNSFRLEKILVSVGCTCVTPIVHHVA
Nature of the test: Biacore SPR; C-terminal VD. The method, boiled down:
(§1)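 Rate constants fitted globally to a 1:1 Langmuir model from antigen series of 10−200 nM flowed at 25 μl/min over captured antibody or DVD-Ig (anti-mouse IgG Fcγ capture, ligand at 25 μg/ml).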
A general note: In SPR one partner is held on a chip, and binding of the other changes the refractive index at the surface.

A further test addresses T2, Recombinant Human IL-1β (human, UniProt P01584 117-269).
T2 construct: bought reagent; also called IL-1B
Nature of the test: Biacore SPR; N-terminal VD. The method, boiled down:
as §1

B1: DVD1268 (bispecific antibody, human IgG1, kappa)
heavy: not shown
light: DTVVTQSPAFLSVTPGEKVTITCITSTDIDVDMNWYQQKPDQPPKLLISQGNTLRPGVPSRFSSSGSGTDFTFTISSLEAEDAATYYCLQSDNLPLTFGQGTKLEIKRTVAAPDIQMTQSPSSLSASVGDRVTITCRASSGIISYIDWFQQKPGKAPKRLIYATFDLASGVPSRFSGSGSGTDYTLTISSLQPEDFATYYCRQVGSYPETFGQGTKLEIKRTVAAPSVFIFPPSDEQLKSGTASVVCLLNNFYPREAKVQWKVDNALQSGNSQESVTEQDSKDSTYSLSSTLTLSKADYEKHKVYACEVTHQGLSSPVTKSFNRGEC
notes: DVD-Ig, outer AB271, inner AB273, linker set 1; V1 wt hIgG1, V2 kappa; also called DVD1268H; DVD1268L
As a reminder, the Kd is the constant that tells how readily two partners part at equilibrium. The koff is a measure of how fast the partners let go of each other. One may read the kon as the second-order rate constant of association. Regarding B1, in the test with Recombinant Human IL-17, the Kd was less than 0.02 nM, the koff was less than 1e-06 s⁻¹ and the kon stood at 51000 M⁻¹ s⁻¹. Further, in the test with Recombinant Human IL-1β, the Kd was determined as 0.067 nM, the dissociation rate constant (koff) was determined as 0.00057 s⁻¹ and the kon came out at 8.5e+06 M⁻¹ s⁻¹.

B2: DVD1262 (bispecific antibody, human IgG1, kappa)
heavy: not shown
light: DIQMTQSPSSLSASVGDRVTITCRASGNIHNYLTWYQQTPGKAPKLLIYNAKTLADGVPSRFSGSGSGTDYTFTISSLQPEDIATYYCQHFWSIPYTFGQGTKLQITRTVAAPDIQMTQSPSSLSASVGDRVTITCRASSGIISYIDWFQQKPGKAPKRLIYATFDLASGVPSRFSGSGSGTDYTLTISSLQPEDFATYYCRQVGSYPETFGQGTKLEIKRTVAAPSVFIFPPSDEQLKSGTASVVCLLNNFYPREAKVQWKVDNALQSGNSQESVTEQDSKDSTYSLSSTLTLSKADYEKHKVYACEVTHQGLSSPVTKSFNRGEC
notes: V1 wt hIgG1, V2 kappa; also called DVD1262H; DVD1262L
As for B2, in the test with Recombinant Human IL-17, the Kd stood at 12 nM, the koff was 0.0001 s⁻¹ and the kon came out at 8500 M⁻¹ s⁻¹. In the test with Recombinant Human IL-1β, the equilibrium dissociation constant (Kd) was determined as 0.033 nM, the koff worked out at 4.8e-05 s⁻¹ and the kon amounted to 1.4e+06 M⁻¹ s⁻¹.

B3: DVD1264 (bispecific antibody, human IgG1, kappa)
heavy: not shown
light: B2 light
notes: V1 wt hIgG1, V2 kappa; also called DVD1264H; DVD1264L
As to B3, in the test with Recombinant Human IL-17, the Kd was 0.3 nM, the koff stood at 1.1e-05 s⁻¹ and the kon was 37000 M⁻¹ s⁻¹. In addition, in the test with Recombinant Human IL-1β, the Kd was found to be 0.024 nM, the koff turned out to be 2.2e-05 s⁻¹ and the kon stood at 940000 M⁻¹ s⁻¹.

B4: DVD1593 (bispecific antibody, human IgG1, kappa)
heavy: not shown
light: DTQVTQSPSSLSASVGDRVTITCITSTDIDVDMNWYQQKPGKPPKLLISQGNTLRPGVPSRFSSSGSGTDFTFTISSLQPEDFATYYCLQSDNLPLTFGQGTKLEIKRTVAAPSVFIFPPDIQMTQSPSSLSASVGDRVTITCRASSGIISYIDWFQQKPGKAPKRLIYATFDLASGVPSRFSGSGSGTDYTLTISSLQPEDFATYYCRQVGSYPETFGQGTKLEIKRTVAAPSVFIFPPSDEQLKSGTASVVCLLNNFYPREAKVQWKVDNALQSGNSQESVTEQDSKDSTYSLSSTLTLSKADYEKHKVYACEVTHQGLSSPVTKSFNRGEC
notes: DVD-Ig, outer AB270, inner AB273, linker set 2; V1 wt hIgG1, V2 kappa; also called DVD1593H; DVD1593L
As to B4, in the test with Recombinant Human IL-17, the Kd was determined as 0.027 nM, the koff was determined as 9.2e-06 s⁻¹ and the kon worked out at 340000 M⁻¹ s⁻¹. Besides, in the test with Recombinant Human IL-1β, the Kd stood at 0.064 nM, the koff worked out at 0.00047 s⁻¹ and the kon was 7.4e+06 M⁻¹ s⁻¹.

B5: DVD1591 (bispecific antibody, human IgG1, kappa)
heavy: not shown
light: DIQMTQSPSSLSASVGDRVTITCRASGNIHNYLTWYQQTPGKAPKLLIYNAKTLADGVPSRFSGSGSGTDYTFTISSLQPEDIATYYCQHFWSIPYTFGQGTKLQITRTVAAPSVFIFPPDIQMTQSPSSLSASVGDRVTITCRASSGIISYIDWFQQKPGKAPKRLIYATFDLASGVPSRFSGSGSGTDYTLTISSLQPEDFATYYCRQVGSYPETFGQGTKLEIKRTVAAPSVFIFPPSDEQLKSGTASVVCLLNNFYPREAKVQWKVDNALQSGNSQESVTEQDSKDSTYSLSSTLTLSKADYEKHKVYACEVTHQGLSSPVTKSFNRGEC
notes: V1 wt hIgG1, V2 kappa; also called DVD1591H; DVD1591L
As for B5, in the test with Recombinant Human IL-17, the Kd is less than 0.0032 nM, the koff was less than 1e-06 s⁻¹ and the kon stood at 310000 M⁻¹ s⁻¹. For the same molecule, in the test with Recombinant Human IL-1β, the Kd was 0.032 nM, the koff is 3.1e-05 s⁻¹ and the kon amounted to 960000 M⁻¹ s⁻¹.
